B1: EFHC1 (parent)
chain: NIYYYLEDDSMSVIEPVVENSGIL
B2: PLD5 (parent)
chain: KRTYWPDLDAKIREALVLRSVRVR

Variants of: B1
Experiment: protein stability index of a GFP-peptide fusion (GPS, HEK-293T) (PSI 1-6); higher = more stable
Details: c terminus: a fixed tail appended
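Also: lentivirally expressed fusions sorted by FACS into six bins by GFP to DsRed ratio, PSI derived from sequencing read proportions per bin multiplied by bin number.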

Protein stability index, by site and new letter:
E15: H 1.75 | T 1.42 | G 1.6 | D 1.96 | N 2.79 | I 3.11 | F 2.48 | P 2.38
D8: E 1.94 | T 1.83 | N 2.01 | A 1.94
M11: V 2.2 | K 3.24 | C 2.19 | Q 2.55 | S 2.46 | L 2.07 | E 2.68
G22: P 2.14 | Q 1.82 | H 1.71
V18: K 2.33 | H 2.11 | R 1.92 | P 2.38 | Q 2.38 | Y 1.67 | A 2.19 | I 2.23
Y4: C 2.31 | Q 2.39 | T 2.91 | W 2.99 | A 2.12 | L 1.42 | M 2.18 | E 2.78
S21: Q 2.6 | L 2.03 | I 1.48 | P 2.4 | K 2.12
L6: W 1.52 | D 3.26 | Y 2.22
L24: V 2.21 | I 3.15 | W 1.4 | C 2.02 | Y 2.31 | A 2.08 | M 2.02 | P 2.41
E7: N 2.72 | P 1.92 | S 1.46 | A 1.4 | L 2.33 | K 1.91 | Y 2.31 | F 1.13
P16: T 2.94 | D 2.2 | K 2.58 | H 2.45 | A 2.38
V17: M 2.07 | G 1.95 | I 1.62 | N 1.76
V13: Y 1.31 | G 2.42 | F 2.16
D9: Q 2.88 | E 2.11 | H 2.13 | W 1.54 | L 1.68 | F 2.08
I14: T 2.1 | V 2.31 | A 2.42 | S 2.43 | W 1.86 | G 2.51 | N 2.62 | E 3.1
S12: A 1.98 | E 2.64 | R 1.73 | F 2.77 | G 2.37 | D 3.05
I23: W 2.47 | G 2.14 | F 1.2 | P 2.42 | N 2.71 | K 2.53 | E 3.12
Y3: S 3.2 | E 3.76 | Q 3.12 | D 4.08 | R 3.04 | F 2.07
N20: W 2.37 | P 2.95 | K 2.06 | D 1.7
N1: H 1.74 | D 1.59 | Y 1.81 | Q 2.83 | W 1.61 | A 2.06 | T 1.4 | L 1.92
I2: R 3.03 | D 2.62 | T 3.29 | S 3.4 | W 2.35 | V 2.13 | G 3.21 | Q 3.33 | P 3.82
E19: L 1.42 | K 2.23 | G 1.74
S10: T 1.93 | E 2.57 | Q 2.05 | K 2.18 | Y 1.9 | W 2.02 | H 2.09
Y5: E 3.62 | K 3.41 | S 3.23 | V 2.39 | P 3.83 | N 2.78

Variants of: B2
Experiment: as above
Details: c terminus: a fixed tail appended

Protein stability index: each site, then its substitutions
T3: W 1.12 | I 1.46 | E 1.28 | A 1.78
R19: T 2.53 | H 1.48 | E 1.69 | Y 2.67 | S 1.8 | K 1.45 | C 2.36
V21: Q 2 | T 1.91 | G 2.4 | H 2.11 | I 1.66 | S 2.09 | Y 2.68 | K 2.75 | R 2.4
I12: Y 1.29 | H 2.19 | A 2.01 | D 1.43 | F 1.93 | C 2.29 | M 2.38 | L 1.81 | T 2.7
W5: D 1.73 | A 1.86 | K 2.01 | C 1.5 | H 2.9 | V 4.52 | N 1.96 | I 3.62 | Q 2.15 | R 2.1
D9: G 2.88 | E 2.54 | N 1.59
Y4: S 1.67 | C 1.85 | E 2.69 | G 2.01 | L 2.27 | T 1.82 | F 1.41 | W 1.75 | P 1.9 | I 1.96 | K 1.48 | H 2.25
A10: P 2.36 | T 2.33 | F 1.52 | V 1.93 | H 3.11
S20: R 2 | T 1.96 | N 1.77
R2: E 2.14 | N 2.14 | W 1.32 | K 2.56 | F 2.92 | T 2.63 | H 1.54 | V 2.43
L16: D 2.8 | P 2.02 | I 1.95 | V 2.53 | S 2.51 | H 2.94 | Y 2.06 | N 2.61
V23: L 1.03 | E 1.64 | C 1.61 | K 1.99 | A 1.93 | I 1.96 | M 3.02 | F 1.9 | Q 2.12
V17: I 1.11 | Q 1.57 | H 3.18 | N 5.34 | K 1.79 | T 1.57 | E 1.6 | S 1.95 | W 1.3 | M 2.18
R13: N 1.61 | Y 1.65 | C 2.29 | Q 1.28 | A 1.3 | V 2.31 | H 2.6 | P 1.79
D7: E 1.02 | L 1.82 | S 2.02 | M 2.84 | R 2.62 | A 1.87 | P 3.44 | T 2.39
A15: P 1.67 | Y 2.11 | T 1.72 | N 1.51 | W 1.62 | Q 2.04 | K 1.9 | E 2.26 | V 1.04
P6: Q 3.34 | G 1.82 | F 2.23 | A 2.54 | K 1.25 | S 1.67 | C 1.06 | H 1.96
L8: P 1.82 | E 2.94 | H 2.47 | W 1.85 | Y 3.05 | T 2.24 | A 2.18 | M 2.72 | R 3.06
L18: R 2.12 | G 1.91 | S 1.88 | T 1.71 | Y 2.09 | H 2.16 | I 1.64 | V 1.6 | N 2.45 | M 1.51 | K 2.64
E14: Q 1.88 | S 1.13 | A 1.09 | T 2.42 | K 1.68 | H 1.27 | G 2.75
R24: F 2.13 | I 2.32 | L 1.77 | Y 2.74 | K 1.08 | P 2.01 | N 1.62 | S 1.97 | M 1.68 | A 1.53
R22: H 1.51 | A 1.45 | L 1.4 | K 1.99 | E 2.02 | P 1.65 | D 2.31 | Y 1.61 | C 2.32 | G 1.65
K1: M 1.79 | G 2.53 | S 1.84 | E 2.58 | F 2.55 | H 2.25
K11: E 2.17 | M 1.04 | Y 1.99 | R 1.47 | A 1.42 | T 2.42 | H 1.29

From the supplement of paper PMC10567573
